Data set [1] addresses T1, influenza A virus RNA polymerase (RNAP; PB1-PB2-PA) (Influenza A virus A/NorthernTerritories/60/68 (H3N2)) (UniProt Q910D6+Q91MB1+P03433). Nature of the data set: fluorescence anisotropy.
Data set [2] concerns the target T1, influenza A virus RNA polymerase (RNAP; PB1-PB2-PA) (Influenza A virus A/NorthernTerritories/60/68 (H3N2)). Nature of the data set: smFRET titration.

Consider three sequences from PMC5137447.

On to AGCGAAAGCAGGAGUUU [5' cRNA], for which the Kd in data set [1] worked out at 0.044 µM.
On the same count and under the same terms, the figure for UAAACUCCUUGUUUCUACU [3' cRNA] is > 1 µM.
On to “AGCGAAAGCAGGAGUUU / UAAACUCCUUGUUUCUACU [cRNA promoter 5U17/3U4]”, for which, in data set [2], the Kd was 0.013 µM.

A word on the Kd: it is the concentration at which binding is half-saturated. A high value points to a looser complex.
